Assay results from publication PMC7952577, “Overcoming the design, build, test bottleneck for synthesis of nonrepetitive protein-RNA cassettes”.

How the values were obtained:
Assay in all cases: iSort-seq, translational repression in E. coli Top10, 37 C
Details in all cases: tags: C-GFP (kept); chain copies: 2
[1] = biological target: MS2 coat protein V29I dlFG (Escherichia phage MS2 (Bacteriophage …, UniProt P03612, V30I;del68-81insG))
PP7 coat protein dlFG = PP7 coat protein dlFG (Pseudomonas phage PP7 (Bacteriophage …, UniProt P03630, ins1-2LA;del68-75insSG))
[2] = biological target: T1, Qbeta coat protein (strain MX1) (Qbeta virus (strain MX1), UniProt Q9T0R9)
T1 sequence: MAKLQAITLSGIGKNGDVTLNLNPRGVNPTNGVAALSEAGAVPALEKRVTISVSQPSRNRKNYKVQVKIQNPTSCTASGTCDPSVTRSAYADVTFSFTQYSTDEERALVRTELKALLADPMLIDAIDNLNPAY

B1: ms2_wt_1_d1 (ssRNA)
RNA: UUAAUUAAAGAGGAGAAAGGUACCCAUGCACAUGAGGAUUACCCAUGUUGUGAGCAAGGGCGAGGAGGAUAACAUGGCCAUCAUCAAGGAGUUCAUGCGCUUCAAGGUGCACAUGGAGGG
B1 was tested, and the binding signal [1] was 21.6 Rscore (log-likelihood ratio).

B2: pp7_wt_5_d1 (ssRNA)
RNA: UUAAUUAAAGAGGAGAAAGGUACCCAUGCUAAGGAGUUUAUAUGGAAACCCUUAUGUGAGCAAGGGCGAGGAGGAUAACAUGGCCAUCAUCAAGGAGUUCAUGCGCUUCAAGGUGCACAUGGAGGG
With B2 the binding signal (PP7 coat protein dlFG) was 6.62 Rscore (log-likelihood ratio).

B3: qb_NOTpre_changeBulge_0004_d2 (ssRNA)
RNA: UUAAUUAAAGAGGAGAAAGGUACCCAUGGCAUGCAUGUCUAAGACAGCAUCUGUGAGCAAGGGCGAGGAGGAUAACAUGGCCAUCAUCAAGGAGUUCAUGCGCUUCAAGGUGCACAUGGAGGG
B3 was tested, and the binding signal [2] was 9.05 Rscore (log-likelihood ratio).
